Series [1] concerns HeLa Kyoto. Nature of the series: solubility in G1/S (NP-40 vs SDS abundance) (log2 ratio); higher = more soluble. To be noted: cell cycle stage: G1/S.
Series [2] has as its system HeLa Kyoto. Kind of series: melting temperature (median over replicates), in situ; higher = more thermally stable.
For series [3], the system named is HeLa Kyoto. Kind of series: thermal stability score vs G1/S (z-score of summed log2 fold changes over temperatures); higher = more thermally stable than in G1/S.
The subject of series [4] is HeLa Kyoto. Nature of the series: solubility change mitosis vs G1/S (difference of NP-40 vs SDS log2 ratios) (log2 ratio difference); higher = more soluble in mitosis.
Setting [5] is: cell cycle stage: early G1 (4.5 h after nocodazole release).
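For melting temperature (median over replicates), in situ in this document: HeLa Kyoto cells synchronized by double thymidine or nocodazole block, proteins quantified by TMT10plex mass spectrometry, three independent biological replicates.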
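For solubility change mitosis vs G1/S (difference of NP-40 vs SDS log2 ratios) in this document: synchronized HeLa Kyoto cells (double thymidine block for G1/S, nocodazole release for mitosis), protein amounts in NP-40 versus SDS lysates quantified by mass spectrometry, three biological replicates.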
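For solubility in G1/S (NP-40 vs SDS abundance) in this document: HeLa Kyoto cells arrested at G1/S by double thymidine block, proteins quantified by TMT10plex mass spectrometry in mild NP-40 versus SDS extracts, three biological replicates.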
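For thermal stability score vs G1/S (z-score of summed log2 fold changes over temperatures) in this document: synchronized HeLa Kyoto cells, proteins quantified by TMT10plex mass spectrometry, three biological replicates, mitosis taken 0.5 h after nocodazole release, G1/S directly after double thymidine block.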

For “MTQQPLRGVTSLRFNQDQSCFCCAMETGVRIYNVEPLMEKGHLDHEQVGSMGLVEMLHRSNLLALVGGGSSPKFSEISVLIWDDAREGKDSKEKLVLEFTFTKPVLSVRMRHDKIVIVLKNRIYVYSFPDNPRKLFEFDTRDNPKGLCDLCPSLEKQLLVFPGHKCGSLQLVDLASTKPGTSSAPFTINAHQSDIACVSLNQPGTVVASASQKGTLIRLFDTQSKEKLVELRRGTDPATLYCINFSHDSSFLCASSDKGTVHIFALKDTRLNRRSALARVGKVGPMIGQYVDSQWSLASFTVPAESACICAFGRNTSKNVNSVIAICVDGTFHKYVFTPDGNCNREAFDVYLDICDDDDF [WDR45]”, the “solubility in G1/S (log2)” value in the series on HeLa Kyoto [1] is -0.26. For the same sequence, the melting temperature turned out to be 53.4 °C in the series on HeLa Kyoto [2] (cell cycle stage: G1/S) and 53.6 °C with HeLa Kyoto [2] (cell cycle stage: mitosis). The thermal stability score in the series with HeLa Kyoto [3] (setting [5]) is -0.724; with HeLa Kyoto [3] (cell cycle stage: mitosis) it was -0.704. Also, in the series on HeLa Kyoto [4], the “solubility change mitosis (log2)” value was -0.0635.

With “MTRHGKNCTAGAVYTYHEKKKDTAASGYGTQNIRLSRDAVKDFDCCCLSLQPCHDPVVTPDGYLYEREAILEYILHQKKEIARQMKAYEKQRGTRREEQKELQRAASQDHVRGFLEKESAIVSRPLNPFTAKALSGTSPDDVQPGPSVGPPSKDKDKVLPSFWIPSLTPEAKATKLEKPSRTVTCPMSGKPLRMSDLTPVHFTPLDSSVDRVGLITRSERYVCAVTRDSLSNATPCAVLRPSGAVVTLECVEKLIRKDMVDPVTGDKLTDRDIIVLQRGGTGFAGSGVKLQAEKSRPVMQA [NOSIP]”, the “solubility in G1/S (log2)” value in the series with HeLa Kyoto [1] was determined as 0.262. Also, the melting temperature in the series with HeLa Kyoto [2] (cell cycle stage: G1/S) was determined as 45.8 °C; in the series with HeLa Kyoto [2] (cell cycle stage: mitosis), 47.8 °C. Moreover, the thermal stability score stood at 4.16 in the series on HeLa Kyoto [3] (setting [5]) and 6.51 in the series with HeLa Kyoto [3] (cell cycle stage: mitosis). For the same sequence, the “solubility change mitosis (log2)” value in the series on HeLa Kyoto [4] is -0.163.

Consider “MTSELDIFVGNTTLIDEDVYRLWLDGYSVTDAVALRVRSGILEQTGATAAVLQSDTMDHYRTFHMLERLLHAPPKLLHQLIFQIPPSRQALLIERYYAFDEAFVREVLGKKLSKGTKKDLDDISTKTGITLKSCRRQFDNFKRVFKVVEEMRGSLVDNIQQHFLLSDRLARDYAAIVFFANNRFETGKKKLQYLSFGDFAFCAELMIQNWTLGAVGEAPTDPDSQMDDMDMDLDKEFLQDLKELKVLVADKDLLDLHKSLVCTALRGKLGVFSEMEANFKNLSRGLVNVAAKLTHNKDVRDLFVDLVEKFVEPCRSDHWPLSDVRFFLNQYSASVHSLDGFRHQALWDRYMGTLRGCLLRLYHD [FIBP]”, for which the “solubility in G1/S (log2)” value in the series with HeLa Kyoto [1] was -0.45. In addition, the melting temperature in the series on HeLa Kyoto [2] (cell cycle stage: G1/S) stood at 50.3 °C; in the series on HeLa Kyoto [2] (cell cycle stage: mitosis), 49.5 °C. Moreover, the thermal stability score in the series with HeLa Kyoto [3] (setting [5]) was -0.876; with HeLa Kyoto [3] (cell cycle stage: mitosis), 0.233. The “solubility change mitosis (log2)” value with HeLa Kyoto [4] is -0.13.

As for “MTSFRLALIQLQISSIKSDNVTRACSFIREAATQGAKIVSLPECFNSPYGAKYFPEYAEKIPGESTQKLSEVAKECSIYLIGGSIPEEDAGKLYNTCAVFGPDGTLLAKYRKIHLFDIDVPGKITFQESKTLSPGDSFSTFDTPYCRVGLGICYDMRFAELAQIYAQRGCQLLVYPGAFNLTTGPAHWELLQRSRAVDNQVYVATASPARDDKASYVAWGHSTVVNPWGEVLAKAGTEEAIVYSDIDLKKLAEIRQQIPVFRQKRSDLYAVEMKKP [NIT2]”, in the series on HeLa Kyoto [1], the “solubility in G1/S (log2)” value amounted to 0.178. Besides, the results for the melting temperature in the series with HeLa Kyoto [2] (cell cycle stage: G1/S) and in the series with HeLa Kyoto [2] (cell cycle stage: mitosis) were 54.5 °C and 54.4 °C, respectively. Also, the thermal stability score with HeLa Kyoto [3] (setting [5]) is -0.442; in the series with HeLa Kyoto [3] (cell cycle stage: mitosis) it was -1.62. For the same sequence, the “solubility change mitosis (log2)” value in the series with HeLa Kyoto [4] is -0.0539.

In the case of “MTSRSTARPNGQPQASKICQFKLVLLGESAVGKSSLVLRFVKGQFHEYQESTIGAAFLTQSVCLDDTTVKFEIWDTAGQERYHSLAPMYYRGAQAAIVVYDITNQETFARAKTWVKELQRQASPSIVIALAGNKADLANKRMVEYEEAQAYADDNSLLFMETSAKTAMNVNDLFLAIAKKLPKSEPQNLGGAAGRSRGVDLHEQSQQNKSQCCSN [RAB5B]”, the “solubility in G1/S (log2)” value in the series with HeLa Kyoto [1] came out at 0.23. Besides, the melting temperature was 57.4 °C in the series on HeLa Kyoto [2] (cell cycle stage: G1/S) and 58.2 °C in the series with HeLa Kyoto [2] (cell cycle stage: mitosis). In addition, the thermal stability score was -0.307 in the series with HeLa Kyoto [3] (setting [5]) and -2.64 in the series with HeLa Kyoto [3] (cell cycle stage: mitosis). Moreover, the “solubility change mitosis (log2)” value in the series on HeLa Kyoto [4] is -0.207.

For the sequence “MTSSGPGPRFLLLLPLLLPPAASASDRPRGRDPVNPEKLLVITVATAETEGYLRFLRSAEFFNYTVRTLGLGEEWRGGDVARTVGGGQKVRWLKKEMEKYADREDMIIMFVDSYDVILAGSPTELLKKFVQSGSRLLFSAESFCWPEWGLAEQYPEVGTGKRFLNSGGFIGFATTIHQIVRQWKYKDDDDDQLFYTRLYLDPGLREKLSLNLDHKSRIFQNLNGALDEVVLKFDRNRVRIRNVAYDTLPIVVHGNGPTKLQLNYLGNYVPNGWTPEGGCGFCNQDRRTLPGGQPPPRVFLAVFVEQPTPFLPRFLQRLLLLDYPPDRVTLFLHNNEVFHEPHIADSWPQLQDHFSAVKLVGPEEALSPGEARDMAMDLCRQDPECEFYFSLDADAVLTNLQTLRILIEENRKVIAPMLSRHGKLWSNFWGALSPDEYYARSEDYVELVQRKRVGVWNVPYISQAYVIRGDTLRMELPQRDVFSGSDTDPDMAFCKSFRDKGIFLHLSNQHEFGRLLATSRYDTEHLHPDLWQIFDNPVDWKEQYIHENYSRALEGEGIVEQPCPDVYWFPLLSEQMCDELVAEMEHYGQWSGGRHEDSRLAGGYENVPTVDIHMKQVGYEDQWLQLLRTYVGPMTESLFPGYHTKARAVMNFVVRYRPDEQPSLRPHHDSSTFTLNVALNHKGLDYEGGGCRFLRYDCVISSPRKGWALLHPGRLTHYHEGLPTTWGTRYIMVSFVDP [PLOD3]”, the “solubility in G1/S (log2)” value with HeLa Kyoto [1] was -0.074. For the same sequence, the melting temperature with HeLa Kyoto [2] (cell cycle stage: G1/S) was 54.2 °C; in the series with HeLa Kyoto [2] (cell cycle stage: mitosis), 55 °C. Further, the thermal stability score in the series with HeLa Kyoto [3] (setting [5]) was found to be 2.65; in the series on HeLa Kyoto [3] (cell cycle stage: mitosis), 3.82. Besides, in the series on HeLa Kyoto [4], the “solubility change mitosis (log2)” value was determined as 0.039.

The record behind these values is the supplement of paper PMC5998384.
